Experimental findings from the supplement of paper PMC9170038 are described below.

The subject of this data set is MS2 coat protein. As to the kind of experiment: apparent KD of MS2 coat protein; designed switch direction (-1 OFF switch, 1 ON switch): 1; higher = weaker reporter binding. The method, boiled down: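 The reported apparent KD is a per-design median over clusters, from curve fits of normalised cluster fluorescence. Protein titrations used SNAP-549-labelled MS2 coat protein, doubled from 0.7 or 1.5 nM to 3 µM, in Tris-HCl pH 7.5 buffer with KCl, MgCl2, BSA, DTT, tRNA and Tween-20, with no input, 200 uM small-molecule ligand, or an oligonucleotide input. The RNA switches were transcribed on Illumina chips by stalled E. coli RNA polymerase.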

The mark [1] stands for this setting: input ligand: microRNA oligo, concentration not stated.
[2] abbreviates: Eterna round: R95, input ligand: FMN 200 uM.
[3] abbreviates: Eterna round: R95, input ligand: microRNA oligo, concentration not stated.
[4] abbreviates: Eterna round: R95, input ligand: none.

Consider “AACGUGUAGGAAGGAUAUAUUGUUCAAGGGAUUGCAAUCUCUAACAUGAGGAUCACCCAUGUAGAGUAGAAGGUCCACCGCAGG [Eternabot solution 40] (Eterna round: R96, puzzle: Same State NG 2)”, for which the “apparent KD of MS2 coat protein” value (input ligand: FMN 200 uM) stood at 14.1 nM, the “apparent KD of MS2 coat protein” value under setting [1] worked out at 13.5 nM and the “apparent KD of MS2 coat protein” value (input ligand: none) was found to be 19.2 nM.
For “AAGUAACAUGAGGAUCACCCAUGUGAGGUGAGCGUAGGAUAUCGAGGAGGAAGGGUAGGUCGAGAAGGACGAGAAG [JR_SS1_Sub096] (puzzle: Same State 1)”, the “apparent KD of MS2 coat protein” value came to 127 nM under setting [2], 162 nM under setting [3] and 247 nM under setting [4].
The like results for “AAGUUAAGCUUUUUGUUCUGCCUAUUCUAACAUGAGGAUCACCCAUGUAGUCAGACGACUGCGUGUGUAGUUGAGAU [JR_SHM208A_Sub029] (puzzle: Sensor for hsa-mir-208a)” were, in that order, 121 nM, 194 nM and 111 nM.
As for “AAUAACAAUUUAGGAUAUCGACAGCGAAACUCACGAGAAGGAGAUAAGAGGCUGGCCUCGCGCACAUGAGGAUCACCCAUGUCG [Eternabot solution 25] (Eterna round: R96, puzzle: Same State NG 1)”, the “apparent KD of MS2 coat protein” value reads like this: (input ligand: FMN 200 uM) 38.1 nM; under setting [1], 29.8 nM; (input ligand: none) 41.1 nM.
The like results for “AAUCAACGCCGAGGAUAUCGGCCUACAUGAGGAUCACCCAUGUUGGGACAUAAAUUAAUCUCGGCUGAGAAGGCGGGAGUUGAC [Eternabot solution 38] (Eterna round: R96, puzzle: Same State NG 2)” were, in that order, 23 nM, 13.3 nM and 19.9 nM.
In the same order, the values of “AAUUAAGAUCAAGGAUAUCACGUCGAUUAGACGUGAGAAGGUGAUCAUAACAUGAGGAUCACCCAUGUAUUACAUGAAUUAAUU [SSNG1/2-B2] (Eterna round: R96, puzzle: Same State NG 1)” are 85.7 nM, 330 nM and 397 nM.
As to “AAUUUAAUACAUGAGGAUCACCCAUGUAAUACUUGUAAGAUCAAGGAUAUCAGCUCGAAUAGAGCUGAGAAGGUGAUCACAUGU [SSNG3/19-D1] (Eterna round: R96, puzzle: Same State NG 3)”, under setting [1], the “apparent KD of MS2 coat protein” value is 24.9 nM.
“ACAAGCUUUUUAGGAAGUGAAGGGAGGGAACAUGAGGAUCACCCAUGUAAGUGGAAUGAAGAAGGAGCACGUCUUAU [JR_SHM208A_Sub097] (puzzle: Sensor for hsa-mir-208a)”: the “apparent KD of MS2 coat protein” value reads like this: under setting [2], 32.7 nM; under setting [3], 26.6 nM; under setting [4], 43.1 nM.
With “ACAUGACAUGAGGAUCACCCAUGUCGAUAAAAGCAAGGAUAUGGGCCCGAGUCGUUCGGACCAGAAGGUGCGUCUC [Orso] (Eterna round: R96, puzzle: Same State 1)”, the “apparent KD of MS2 coat protein” value runs as follows: (input ligand: FMN 200 uM) 18.3 nM; under setting [1], 16.3 nM; (input ligand: none) 23.8 nM.
The like results for “ACAUGAGACAGAGGAUAUGUUGUACCUACAUGUGACAUGAGGAUCACCCAUGUGGUAAGUAUGAUACAGAAGGCUGAGAUAUGU [Equivalance 64 - Jieux - Same State NG 2] (Eterna round: R96, puzzle: Same State NG 2)” were, in that order, 15 nM, 18.3 nM and 24.2 nM.
In the same order, the values of “ACAUGAGAUUGAGGAUAUAUUGUACCUACAUGUGACAUGAGGAUCACCCAUGUGGUAAGUAUGACAUAGAAGGCAAAGAUAUGU [Equivalance 81 - Jieux - Same State NG 2] (Eterna round: R96, puzzle: Same State NG 2)” are 87.1 nM, 54.1 nM and 74.4 nM.
In the case of “ACAUGAGGAUCACCCAUGUGAAAAGACCUAGAGGUGAAGCCGCAGGAUAUAUCACAAACGAGAAGAUAGAAGGGCGUACGCAUG [Eternabot solution 9] (Eterna round: R96, puzzle: Same State NG 3)”, the “apparent KD of MS2 coat protein” value is, setting by setting: (input ligand: FMN 200 uM) 89.7 nM; under setting [1], 60.5 nM; (input ligand: none) 72.1 nM.
In the same order, the values of “ACAUUUAGCUCGUGCACAUGAGGAUCACCCAUGUUCAGUUCACAGGAUAUCUAGUCAAACGGAUCGGAGAAGGGUGGCAGGAGC [Quceon] (Eterna round: R96, puzzle: Same State NG 3)” are 39.9 nM, 121 nM and 123 nM.
The like results for “ACGCAAAAUGGAGGAUAUGGAGCCUUAUUGGCUCCAGAAGGUCAAAACAUGAGGAUCACCCAUGUGCGGUGGUCUAAUGACCAC [Eli NG1ss - 46] (Eterna round: R96, puzzle: Same State NG 1)” were, in that order, 41.5 nM, 109 nM and 172 nM.
Regarding “ACGCAGCUGGGUGAGGAUAUCGGUGGUAAAACAUGAGGAUCACCCAUGUCCGAAGCUCGGACUUCCGAGAAGGCGCCCGGCCGCA [Atbeatve] (puzzle: Same State 2)”, the “apparent KD of MS2 coat protein” value stood at 14.6 nM under setting [2], 65.2 nM under setting [3] and 83.1 nM under setting [4].
Turning to “ACGUGGGUAUCACAGGAUAUACUCAUAACUACAUGAGGAUCACCCAUGUAGCGGUAUUCCGGUGCGUAGAAGGGUGAUGGACCAC [Same State 2 - Mod of Artece] (puzzle: Same State 2)”, the “apparent KD of MS2 coat protein” value under setting [2] was 13.3 nM, the “apparent KD of MS2 coat protein” value under setting [3] turned out to be 11.6 nM and the “apparent KD of MS2 coat protein” value under setting [4] was 19.9 nM.
Consider “ACUAUUAAUGCAGGAUAUGAUUAACAUGAGGAUCACCCAUGUGGUGUUGUGAGUAAGGAGAGUGAUCAGAAGGGCAUUUUUUUU [JMF's solution 37] (Eterna round: R96, puzzle: Same State NG 2)”, for which the “apparent KD of MS2 coat protein” value (input ligand: FMN 200 uM) came out at 992 nM, the “apparent KD of MS2 coat protein” value under setting [1] is 466 nM and the “apparent KD of MS2 coat protein” value (input ligand: none) turned out to be 629 nM.
In the same order, the values of “ACUUAGUACAAUUUAGAUCUACAUGAGGAUCACCCAUGUACUGAGGAUAUCAGCUCGUUUAGAGCUGAGAAGGCAGUAGUACUA [SSNG3/9-A3] (Eterna round: R96, puzzle: Same State NG 3)” are 46.7 nM, 26.2 nM and 61.9 nM.
As to “ACUUGCUUUUUGCUCGUAUAUUGUCCGUUACAUGAGGAUCACCCAUGUGUAUAUUAUGUGUUGUUUUUGAUACGUGU [JR_SHM208A_Sub069] (puzzle: Sensor for hsa-mir-208a)”, the “apparent KD of MS2 coat protein” value by setting is: under setting [2], 36.2 nM; under setting [3], 33.9 nM; under setting [4], 43.7 nM.
On to “AGAAAACAUGAGGAUCACCCAUGUAGAAAUAUGGGAGGAUAUACAAAGACGAAAGUCAGAGUAGAAGGCCUAAAAA [salish99-SS1-085] (Eterna round: R96, puzzle: Same State 1)”, for which the “apparent KD of MS2 coat protein” value under setting [1] came out at 46.6 nM.
Consider “AGAAAAGUUUACGAGGAUAUGUUCCGCAUAACAUGAGGAUCACCCAUGUGAACAAGAAAGGCGACGCAGAAGGCGUGAGCAAAAG [Mat - Same State 2 - Mod of UCT - D98] (puzzle: Same State 2)”, for which the “apparent KD of MS2 coat protein” value under setting [2] came out at 38.8 nM, the “apparent KD of MS2 coat protein” value under setting [3] came out at 82.1 nM and the “apparent KD of MS2 coat protein” value under setting [4] worked out at 116 nM.
“AGACACAUGAGGAUCACCCAUGUUACGAGCUUAGCUCGGACACAGGAUAUCCGGUCCUAGAGACCGGAGAAGGGUGCCUGAUAA [Zara MOD3] (Eterna round: R96, puzzle: Same State NG 3)”: the “apparent KD of MS2 coat protein” value is 568 nM (input ligand: FMN 200 uM), 678 nM under setting [1] and 765 nM (input ligand: none).
As to “AGACAUGAGGAUCACCCAUGUAUACACUGUAUCAGUGUAACAUAGGAUAUCCACCGCCAUGCUGUGGAGAAGGAUGAAACGGGC [Matearen] (Eterna round: R96, puzzle: Same State NG 3)”, the “apparent KD of MS2 coat protein” value reads like this: (input ligand: FMN 200 uM) 175 nM; under setting [1], 111 nM; (input ligand: none) 99.5 nM.
For the sequence “AGAGAGGAAGCUGAGGAUAUCGUAAGGAGGACAUGAGGAUCACCCAUGUGUGUGGAAUUGGAGGACGAGAAGGCAGAGGAGUGGG [JR_SS2_Sub055] (puzzle: Same State 2)”, the “apparent KD of MS2 coat protein” value under setting [2] worked out at 33 nM, the “apparent KD of MS2 coat protein” value under setting [3] was 35.2 nM and the “apparent KD of MS2 coat protein” value under setting [4] is 34.6 nM.
In the same order, the values of “AGAGCCGGCACUGAGGAUAUUCAUAUUAAAACAUGAGGAUCACCCAUGUAGGCCAGAAGGCCUUGGGAGAAGGCAGGUCGGCUCA [Mat - Same State 2 - Mod of UCT - D58] (puzzle: Same State 2)” are 25.2 nM, 212 nM and 484 nM.
As to “AGAUCAUGACGAGGAUAUGGUACAUGAGGAUCACCCAUGUAUGUACCACGACGGAAACGUCGAAUCCAGAAGGCGUCGUGGUCA [Mat - Same State NG 2 - JL mod - D22] (Eterna round: R96, puzzle: Same State NG 2)”, the “apparent KD of MS2 coat protein” value is, setting by setting: (input ligand: FMN 200 uM) 27.7 nM; under setting [1], 115 nM; (input ligand: none) 167 nM.
In the case of “AGCAAAAUAAGCAAGGAUAUGUAAUUUGGCACAUGAGGAUCACCCAUGUCAAUCCAUUUUUUUGAACAGAAGGUGCAUUUUUUUU [ak first solve] (puzzle: Same State 2)”, the “apparent KD of MS2 coat protein” value under setting [3] turned out to be 36.4 nM.
On to “AGCAUACAUGAGGAUCACCCAUGUCAACGUAGUCGAGGAUAUGGGCAGCCGUGAGGCGAACCAGAAGGCGAAUUGA [Mat - Same State 1 - Mod of JL - D3] (puzzle: Same State 1)”, for which the “apparent KD of MS2 coat protein” value reads like this: under setting [2], 23.7 nM; under setting [3], 34.6 nM; under setting [4], 38.9 nM.
